Experimental data taken from patent publication US20110318757A1 (MAB FACTORY, published 2011).

T1: MUC1 peptide (15 aa+cystein, APDTRPAPGSTAPPAC) (human)
T1 construct: If the listing entry has only 15 residues, a C-terminal Cys must be added; Immobilized on the SPR chip; also called synthetic MUC1 peptide
T1 peptide: APDTRPAPGSTAPPAC

T2: 32-mer MUC1 peptide (human)
T2 construct: also called MUC1 peptide antigen (32mer cys); MUC1 peptide (32 mer cys)
T2 peptide: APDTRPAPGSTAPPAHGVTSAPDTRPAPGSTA


Assays:
[1] = molecular target: T1, MUC1 peptide (15 aa+cystein, …); assay: SPR, scFv 2-200 nM over immobilized MUC1 peptide, Chip 1 (47 RU)
[2] = molecular target: T1, MUC1 peptide (15 aa+cystein, …); assay: SPR, scFv over immobilized MUC1 peptide, Chip 2 (14 RU)
[3] = molecular target: T1, MUC1 peptide (15 aa+cystein, …); assay: SPR, scFv over immobilized MUC1 peptide, Chip 2 (14 RU); Chip 2 (14 RU MUC1 peptide)
32-mer MUC1 peptide [4] = molecular target: T2, 32-mer MUC1 peptide; assay: titration ELISA, MUC1 peptide (32mer Cys) 50 ng/well, IgG diluted 1:3.16 from 100 µg/mL, detection goat anti-human IgG (Fc) HRP, TMB; mean of three plates, BSA value subtracted; A450-A620
Protocol: 3× Nunc Maxisorp plates coated with 50 ng/well MUC1 peptide antigen (32mer cys, sequence: […]) [0227] Control plate was coated with 100 ng/well BSA [0228] Blocking solution: 2% skim milk powder in PBS-T (0.1% Tween), 1 h, RT [0229] IgG samples were diluted to a final concentration of 100 μg/ml with blocking solution [0230] samples were sequentially diluted 1:3.16 [0231] detection: goat anti-human IgG (Fc spec) HRP conjugate (Sigma, 1:39000), 1 h, RT [0232] Development: TMB substrate, reaction stopped with sulfuric acid after 10 minutes. [0233] A450-A620 measured in a Tecan Sunrise Reader [0234] […] Mean value and standard deviation of three plates (MUC1) calculated [0236] BSA value (negative control) subtracted from mean value [0237] Plotting: [0238]

32-mer MUC1 peptide [5] = molecular target: T2, 32-mer MUC1 peptide; assay: ELISA, IgG on coated 32-mer MUC1 peptide
Protocol: (§1) This analysis was done using the ELISA technique wherein the 32-mer MUC1 peptide is immobilized in the wells of a microtitre plate, and wherein the anti-MUC1 antibodies are added later in different concentrations.

32-mer MUC1 peptide [6] = molecular target: T2, 32-mer MUC1 peptide; assay: ELISA, 32-mer MUC1 peptide immobilized in microtitre wells, IgG about 0.03 to 8000 ng/well, A450-A620 (preliminary results according to the legend)
Protocol: as §1

| Ka [1] | Kd [1] | koff [1] | kon [1] | Ka [2] | Kd [2] | koff [2] | kon [2] | Kd [3] | Binder | EC50 (read off the curve) (32-mer MUC1 peptide [4]) | fold stronger binding than R764-G2 and R764-hHMFG1 (32-mer MUC1 peptide [5]) | EC50 (read off the curve) (32-mer MUC1 peptide [6]) |
| --- | --- | --- | --- | --- | --- | --- | --- | --- | --- | --- | --- | --- |
| 2.8e+08 M⁻¹ | 3.7 nM | 0.00011 s⁻¹ | 29000 M⁻¹ s⁻¹ | – | – | – | – | – | HT220-M-D1 scFv (scFv, scFv as VH-truncated CH1-linker-VL-truncated CL, made in the E. coli periplasm and purified by its His-tag; not shown: C-terminal His-tag used for purification and detection) scFv: QMLLVQSGAEAKKPGASVKVSCKASGYTFTGHYMHWVRQAPGQGLEWMGWIDPVTGGTKYAQNFQGWVTMTRDTSIRTAYMELSRLRPDDTAMYYCAREVTGDRGQFDKWGQGTLVTVASASTKGPSVKLEEGEFSEARVQSVLTQPPSVSVVPGKTARIICGGNNIGSKSVHWYQQKPGQAPVLVIYNNSDRPSGIPERFSGSNSGNMATLTISRVEAGDESDYYCQVWDSSSDWVFGGGTRLTILGQSKAAPSVTLFPPS | – | – | – |
| 1.8e+09 M⁻¹ | 0.57 nM | 2.1e-05 s⁻¹ | 38000 M⁻¹ s⁻¹ | 1.5e+09 M⁻¹ | – | – | – | 0.65 nM | HT186-D11 scFv (scFv, scFv as VH-truncated CH1-linker-VL-truncated CL, made in the E. coli periplasm and purified by its His-tag; not shown: C-terminal His-tag used for purification and detection) scFv: QMQLVQSEAELKKPGASVKVSCKASGYSFTGHYMHWVRQAPGQGLEWMGWIDPVTGGTKYAQNFQGWVTMTRDTSIRTAYLELSRLRSDDTAMYYCAREVTGDRGQFDKWGQGTLVTVASSSTKGPSVKLEEGEFSEARVQSVLTQPPSVSVAPGKTARITCGGNNIGSKSVHWYQQKPGQAPALVIYYGSNRPSGIPERFSGSNSGNTATLTISRVEAGDEADYYCQVWDSSSDWVFGGGTKLTVLGQPKAAPSVTLFPSS | – | – | – |
| 2.3e+08 M⁻¹ | 4.4 nM | 0.00022 s⁻¹ | 50000 M⁻¹ s⁻¹ | – | – | – | – | – | HT220-M-G8 scFv (scFv, scFv as VH-truncated CH1-linker-VL-truncated CL, made in the E. coli periplasm and purified by its His-tag; not shown: C-terminal His-tag used for purification and detection) scFv: QMQLVQSGAEVMKPGASVKVSCKASGYSFTGHYMHWVRHAPGQGLEWMGWIDPVTGSTKYAQNFQGWVTMTRDTSISTAYMELSRLRSDDTAMYYCAREVTGDRGQFDKWGQGTLVTVASASTKGPSVKLEEGEFSEARVQSVLTQPPSVSVAPGKTARITCGGNNIGSKSVHWYQQKPGQAPVLVIYYGSDRPSGIPERFSGSNTGNMATLTISRVEAGDEADYYCQVWDSSSDWVFGGGTKLTVLGQPKAAPSVTLFPPS | – | – | – |
| 4.8e+08 M⁻¹ | 2.1 nM | 0.0001 s⁻¹ | 49000 M⁻¹ s⁻¹ | – | – | – | – | – | HT200-3A-C1 scFv (scFv, scFv as VH-truncated CH1-linker-VL-truncated CL, made in the E. coli periplasm and purified by its His-tag; not shown: C-terminal His-tag used for purification and detection) scFv: QMQLVQSGAEVKKPGASVKVSCKASGYTFTGHYMHWVRQAPGQGLEWMGWIDPVTGGTKYAQNFQGWVTMTRDTSIRTAYMELSRLRSDDTAMYYCAREVTGDRGQFDKWGQGTLVTVASASTKGPSAKLEEGEFSEARVQSVLTQPPSVSMAPGETARITCGGNNIGSKSVHWYQQKPGQAPVLVIYNDSDRPSGIPERFSGSNSGKTATLTISRVEAGDEADYYCQVWDSSIDWVFGGGTKLTVLGQPKAAPSVTLFPPS | – | – | – |
| 1e+09 M⁻¹ | 1 nM | 7.2e-05 s⁻¹ | 72000 M⁻¹ s⁻¹ | 6.6e+08 M⁻¹ | 1.5 nM | 0.00011 s⁻¹ | 73000 M⁻¹ s⁻¹ | – | HT186-G2 scFv (scFv, scFv as VH-truncated CH1-linker-VL-truncated CL, made in the E. coli periplasm and purified by its His-tag; not shown: C-terminal His-tag used for purification and detection) scFv: RMQLVQSGAEVKKPGASVKLSCKASGYTFAGHYMHWVRQAPGRGLEWMGWIDPVTGGTKYAQNFQGWVTMTRDTSIRTAYMELSRLRSDDTAMYYCAREVTGDRGQFDKWGQGTLVTVASASTKGPSVKLEEGKFLEAHVQSVLTQPPSVSVAPGKTARITCGGNNIGSKSVHWYQQKPGQAPVLVIYYGSDRSSGIPERFSGSNSGNTATLTISRVEAGDEADYYCQVWDSSSDWVFGGGTKLTVLGQPKAAPSVTLFPPS | – | – | – |

Continued, binder first:

| Binder | Ka [1] | Kd [1] | koff [1] | kon [1] | Ka [2] | Kd [2] | koff [2] | kon [2] | Kd [3] | EC50 (read off the curve) (32-mer MUC1 peptide [4]) | fold stronger binding than R764-G2 and R764-hHMFG1 (32-mer MUC1 peptide [5]) | EC50 (read off the curve) (32-mer MUC1 peptide [6]) |
| --- | --- | --- | --- | --- | --- | --- | --- | --- | --- | --- | --- | --- |
| HT186-B7 scFv (scFv, scFv as VH-truncated CH1-linker-VL-truncated CL, made in the E. coli periplasm and purified by its His-tag; not shown: C-terminal His-tag used for purification and detection) scFv: QMQLVQSGAEVKKPGASVKVSCKASGYTFTGHYMHWVRQAPGQGLEWMGWIDPVTGGTKYAQNFQGWVTMTRDTSIRTAYMELSRLRSDDTAMYYCAREVTGDRGQFDKWGQGTLVTVASASTKGPSVKLEEGEFSEARVQSVLTQPPSVSVAPGKTARITCGGNNIGSKSVHWYQQKPGQAPALVIYYGSYRPSGIPERFSGSNYGNTATLTIRRVEAGDEADYYCQVWDSSSDWVFGGGTKLTVLGQPKAAPSVTLFPPS | 7.5e+08 M⁻¹ | 1.3 nM | 4.6e-05 s⁻¹ | 35000 M⁻¹ s⁻¹ | 6.3e+08 M⁻¹ | 1.6 nM | 0.00014 s⁻¹ | 90000 M⁻¹ s⁻¹ | – | – | – | – |
| R764-B7 (HT186-B7 IgG) (antibody, V domains shown, Human IgG1, lambda, produced in YB2/0 cells) VH: QMQLVQSGAEVKKPGASVKVSCKASGYTFTGHYMHWVRQAPGQGLEWMGWIDPVTGGTKYAQNFQGWVTMTRDTSIRTAYMELSRLRSDDTAMYYCAREVTGDRGQFDKWGQGTLVTVAS VL: QSVLTQPPSVSVAPGKTARITCGGNNIGSKSVHWYQQKPGQAPALVIYYGSYRPSGIPERFSGSNYGNTATLTIRRVEAGDEADYYCQVWDSSSDWVFGGGTKLTVLG | – | – | – | – | – | – | – | – | – | ~0.1 µg/mL | 10 times | ~10 ng/well |
| R764-D11 (HT186-D11 IgG) (antibody, V domains shown, Human IgG1, lambda, produced in YB2/0 cells; also called R764 HT186-D11) VH: QMQLVQSEAELKKPGASVKVSCKASGYSFTGHYMHWVRQAPGQGLEWMGWIDPVTGGTKYAQNFQGWVTMTRDTSIRTAYLELSRLRSDDTAMYYCAREVTGDRGQFDKWGQGTLVTVAS VL: QSVLTQPPSVSVAPGKTARITCGGNNIGSKSVHWYQQKPGQAPALVIYYGSNRPSGIPERFSGSNSGNTATLTISRVEAGDEADYYCQVWDSSSDWVFGGGTKLTVLG | – | – | – | – | – | – | – | – | – | ~0.1 µg/mL | 10 times | ~10 ng/well |
